Experimental data reported in article PMC10540216, “Activity Guided Azide-methyllysine Photo-trapping for Substrate Profiling of Lysine Demethylases” (Journal of the American Chemical Society, 2023).

B1: DDX3X_HUMAN (protein, UniProt O00571 2-662, looked up)
ATP-dependent RNA helicase …: SHVAVENALGLDQQFAGLDLNSSDNQSGGSTASKGRYIPPHLRNREATKGFYDKDSSGWSSSKDKDAYSSFGSRSDSRGKSSFFSDRGSGSRGRFDDRGRSDYDGIGSRGDRSGFGKFERGGNSRWCDKSDEDDWSKPLPPSERLEQELFSGGNTGINFEKYDDIPVEATGNNCPPHIESFSDVEMGEIIMGNIELTRYTRPTPVQKHAIPIIKEKRDLMACAQTGSGKTAAFLLPILSQIYSDGPGEALRAMKENGRYGRRKQYPISLVLAPTRELAVQIYEEARKFSYRSRVRPCVVYGGADIGQQIRDLERGCHLLVATPGRLVDMMERGKIGLDFCKYLVLDEADRMLDMGFEPQIRRIVEQDTMPPKGVRHTMMFSATFPKEIQMLARDFLDEYIFLAVGRVGSTSENITQKVVWVEESDKRSFLLDLLNATGKDSLTLVFVETKKGADSLEDFLYHEGYACTSIHGDRSQRDREEALHQFRSGKSPILVATAVAARGLDISNVKHVINFDLPSDIEEYVHRIGRTGRVGNLGLATSFFNERNINITKDLLDLLVEAKQEVPSWLENMAYEHHYKGSSRGRSKSSRFSGGFGARDYRQSSGASSSSFSSSRASSSRSGGGGHGSSRGFGGGGYGGFYNSDGYGGNYNSQGVDWWGN
B2: AT2A2_HUMAN (protein, UniProt P16615 1-1042, looked up)
Sarcoplasmic/endoplasmic …: MENAHTKTVEEVLGHFGVNESTGLSLEQVKKLKERWGSNELPAEEGKTLLELVIEQFEDLLVRILLLAACISFVLAWFEEGEETITAFVEPFVILLILVANAIVGVWQERNAENAIEALKEYEPEMGKVYRQDRKSVQRIKAKDIVPGDIVEIAVGDKVPADIRLTSIKSTTLRVDQSILTGESVSVIKHTDPVPDPRAVNQDKKNMLFSGTNIAAGKAMGVVVATGVNTEIGKIRDEMVATEQERTPLQQKLDEFGEQLSKVISLICIAVWIINIGHFNDPVHGGSWIRGAIYYFKIAVALAVAAIPEGLPAVITTCLALGTRRMAKKNAIVRSLPSVETLGCTSVICSDKTGTLTTNQMSVCRMFILDRVEGDTCSLNEFTITGSTYAPIGEVHKDDKPVNCHQYDGLVELATICALCNDSALDYNEAKGVYEKVGEATETALTCLVEKMNVFDTELKGLSKIERANACNSVIKQLMKKEFTLEFSRDRKSMSVYCTPNKPSRTSMSKMFVKGAPEGVIDRCTHIRVGSTKVPMTSGVKQKIMSVIREWGSGSDTLRCLALATHDNPLRREEMHLEDSANFIKYETNLTFVGCVGMLDPPRIEVASSVKLCRQAGIRVIMITGDNKGTAVAICRRIGIFGQDEDVTSKAFTGREFDELNPSAQRDACLNARCFARVEPSHKSKIVEFLQSFDEITAMTGDGVNDAPALKKAEIGIAMGSGTAVAKTASEMVLADDNFSTIVAAVEEGRAIYNNMKQFIRYLISSNVGEVVCIFLTAALGFPEALIPVQLLWVNLVTDGLPATALGFNPPDLDIMNKPPRNPKEPLISGWLFFRYLAIGCYVGAATVGAAAWWFIAADGGPRVSFYQLSHFLQCKEDNPDFEGVDCAIFESPYPMTMALSVLVTIEMCNALNSLSENQSLLRMPPWENIWLVGSICLSMSLHFLILYVEPLPLIFQITPLNVTQWLMVLKISLPVILMDETLKFVARNYLEPGKECVQPATKSCSFSACTDGISWPFVLLIMPLVIWVYSTDTNFSDMFWS
B3: CALD1_HUMAN (protein, UniProt Q05682 1-793, looked up)
Caldesmon: MDDFERRRELRRQKREEMRLEAERIAYQRNDDDEEEAARERRRRARQERLRQKQEEESLGQVTDQVEVNAQNSVPDEEAKTTTTNTQVEGDDEAAFLERLARREERRQKRLQEALERQKEFDPTITDASLSLPSRRMQNDTAENETTEKEEKSESRQERYEIEETETVTKSYQKNDWRDAEENKKEDKEKEEEEEEKPKRGSIGENQVEVMVEEKTTESQEETVVMSLKNGQISSEEPKQEEEREQGSDEISHHEKMEEEDKERAEAERARLEAEERERIKAEQDKKIADERARIEAEEKAAAQERERREAEERERMREEEKRAAEERQRIKEEEKRAAEERQRIKEEEKRAAEERQRIKEEEKRAAEERQRARAEEEEKAKVEEQKRNKQLEEKKHAMQETKIKGEKVEQKIEGKWVNEKKAQEDKLQTAVLKKQGEEKGTKVQAKREKLQEDKPTFKKEEIKDEKIKKDKEPKEEVKSFMDRKKGFTEVKSQNGEFMTHKLKHTENTFSRPGGRASVDTKEAEGAPQVEAGKRLEELRRRRGETESEEFEKLKQKQQEAALELEELKKKREERRKVLEEEEQRRKQEEADRKLREEEEKRRLKEEIERRRAEAAEKRQKMPEDGLSDDKKPFKCFTPKGSSLKIEERAEFLNKSVQKSSGVKSTHQAAIVSKIDSRLEQYTSAIEGTKSAKPTKPAASDLPVPAEGVRNIKSMWEKGNVFSSPTAAGTPNKETAGLKVGVSSRINEWLTKTPDGNKSPAPKPSDLRPGDVSSKRNLWEKQSVDKVTSPTKV
B4: CPSF6_HUMAN (protein, UniProt Q16630 1-551, looked up)
Cleavage and polyadenylation …: MADGVDHIDIYADVGEEFNQEAEYGGHDQIDLYDDVISPSANNGDAPEDRDYMDTLPPTVGDDVGKGAAPNVVYTYTGKRIALYIGNLTWWTTDEDLTEAVHSLGVNDILEIKFFENRANGQSKGFALVGVGSEASSKKLMDLLPKRELHGQNPVVTPCNKQFLSQFEMQSRKTTQSGQMSGEGKAGPPGGSSRAAFPQGGRGRGRFPGAVPGGDRFPGPAGPGGPPPPFPAGQTPPRPPLGPPGPPGPPGPPPPGQVLPPPLAGPPNRGDRPPPPVLFPGQPFGQPPLGPLPPGPPPPVPGYGPPPGPPPPQQGPPPPPGPFPPRPPGPLGPPLTLAPPPHLPGPPPGAPPPAPHVNPAFFPPPTNSGMPTSDSRGPPPTDPYGRPPPYDRGDYGPPGREMDTARTPLSEAEFEEIMNRNRAISSSAISRAVSDASAGDYGSAIETLVTAISLIKQSKVSADDRCKVLISSLQDCLHGIESKSYGSGSRRERSRERDHSRSREKSRRHKSRSRDRHDDYYRERSRERERHRDRDRDRDRERDREREYRHR
B5: CX057_HUMAN (protein, UniProt Q6NSI4 1-855, looked up)
RPA-related protein RADX: MSGESGQPEAGPSHAGLDWPNPERNRAGVPGGVIRRAGSQGPRSWIQKVLEQIMDSPRQCVTPSEVVPVTVLAVQRYLLEDEPRDTVPKPPLYCYDVTISDGVYQEKCYLDPSLNSLVYQNILKVGIQMRISRVSCLYNEKRIGQGILCIDNVHCGETSDSISLETPFRNRAHQEKPERPLRGGKSHYLALWNNEDPYGDIWLTDKQPEEHNFSDTKIISLSHLEMTWTNRRNFPALLVRILHKSKLRYYGKPDKKMIEPYQTFLEVADSSGTVSVIMWNALCPEWYKSLRVGLVLLLQDYSVKKSYPFRIQPVPVDPQIKLISTMEICLNLRDPPTNIIIIPEKQVKPEWRLPKLNHRFTTRSELDDMPENCICDVIGLLVFVGRVQRSKKKENREDFWSYRWIHIADGTSEQPFIVELFSTSQPEIFENIYPMAYFVCTQLKVVRNDNQVPKLLYLTTTNESGVFITGHRGQPYTYDAKVKNFIQWIRTKSDSGEQKNMVIGGYYPYPPVPETFSKYSSSIKVESLLTAISEVRKEIEDLQYREQKRIAIQGIITAIKYIPHSSATESASASETLRNANRPSTSQAARVEIQERNGKRHQDDEPVNSQYFQTTSTNLSLSNKIRILQGPHANPVAVPQPGASVQTKGIKPGMPSIFNRRANINANLQGKARKTISDRWESQLWREKKFGLIDHLHYSRVYPESIPRKFMFEHRKFLSDQYNSQPAKYVPPEGRPPKLDDFKSARSLGHFEVTILGLNHEIAIDVAFLPMYCPEDIRTSQIDTLLTSMNYSCAYPQDTTGNDRLPGPRAVAGDIIKAATELDRVHIVGILDICNLGNNKVEVYLHKIYSPENTS

test system: KDM4A-I71AzF; experiment: CASI: photo-crosslinking with HEK293T cell extracts, StrepTactin enrichment and LC-MS/MS proteomics; assay type: binding, human; conditions: sheet "Final results but with 0.01";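 further: lysates from HEK293T cells pretreated with a KDM4 inhibitor to raise proteome methylation, affinity-purified after ±UV, gel-resolved, trypsin-digested, with exclusive unique peptides per protein averaged per condition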

Molecule	Fold change (+UV/-UV)
B1	0.7778
B2	0.75
B3	1.5
B4	0.875
B5	0
